Data on 2 proteins can be found in PMC8300647, “Effects of Serine or Threonine in the Active Site of Typical 2-Cys Prx on Hyperoxidation Susceptibility and on Chaperone Activity” (Antioxidants, 2021).

As usually defined, the stoichiometry N is a count of units in the complex or per binding partner.

Data set [1] deals with the molecule itself. Kind of data set: SEC; reduced samples: 30 uM protein treated with 5 mM TCEP, excess removed by PD10; Phenomenex BioSep-SEC-S2000, 100 mM Tris-HCl pH 7.4, 1 mL/min, absorbance at 280 nm; self-association (decamer, dimer). Background: SEC sorts molecules by how far they enter the pores of the column.
Data set [2] concerns the molecule itself. Description: SEC; oxidized samples (disulfide): reduced 30 uM protein treated with 36 uM H2O2 for 30 min at room temperature; Phenomenex BioSep-SEC-S2000, 100 mM Tris-HCl pH 7.4, 1 mL/min, absorbance at 280 nm; self-association (decamer, dimer).

Residue numbers refer to the chain shown, from its start. Names and notes keep the numbering of the source.

B1: AhpC from Pseudomonas aeruginosa (enzyme, UniProt Q9I6Z3 1-187, looked up)
chain: MSLINTQVQPFKVNAFHNGKFIEVTEESLKGKWSVLIFMPAAFTFNCPTEIEDAANNYGEFQKAGAEVYIVTTDTHFSHKVWHETSPAVGKAQFPLIGDPTHQLTNAFGVHIPEEGLALRGTFVINPEGVIKTVEIHSNEIARDVGETVRKLKAAQYTAAHPGEVCPAKWKEGEKTLAPSLDLVGKI
notes: The forward primer carries the ATG of the Nde I site followed by the gene's own ATG, so one more Met may precede the natural start; The strain that was amplified (ATCC29853) is not the strain of the genome used for the primers; also called PaAhpC; ahpc (Pa); source: E. coli BL21 (DE3), pET15b, purified (IMAC HisTrap, PD10 desalting)
Take B1: the results for the “stoichiometry N” value in data set [1] and in data set [2] were 10 and 2, respectively.

B2: PaAhpC^T44S (enzyme)
chain: B1 chain with T44S
notes: AhpC of Pseudomonas aeruginosa with the catalytic triad Thr changed to Ser; printed as T44S in the SEC text and legend and as T43S in the primers' names and other legends (one mutant; mutagenic primer encodes AAFSFNC); Made by site directed mutagenesis (Quick Change II) of the pET15b-ahpc (Pa) plasmid; also called PaAhpC^T43S; source: E. coli BL21 (DE3), pET15b, purified (IMAC HisTrap, …)
On to B2, for which, in data set [1], the “stoichiometry N” value stood at 10.
